Where no end group is shown, it is not given here.
Experiments:
G12V mutant KRAS = biological target: T1, G12V mutant KRAS (Homo sapiens, UniProt P01116, G12V); assay: In vitro translation assay with streptavidin pull-down, KRAS G12V; format: binding; settings: 10 μM biotinylated pept-in, Western blot
T1 construct: made in house; host or cells: cell-free: PURExpress In Vitro Protein Synthesis Kit (New England Biolabs)
Procedure: (§1) In vitro translation assays were performed using the PURExpress® In Vitro Protein Synthesis Kit (New England Biolabs) according to the manufacturer's instructions. Briefly, linear DNA fragments containing T7 promotor and terminator sequences flanking the KRAS coding sequence were generated using PCR and purified using the MinElute PCR Purification Kit (Qiagen). 250 ng of linear DNA was subsequently used for the in vitro translation reaction, which was performed for 2 hours at 37° C. with shaking (1000 rpm). Indicated biotinylated pept-ins were mixed in the translation reactions from a 5 mM stock solution in 6M Urea to a final concentration of 10 μM. Upon completion of the translation reaction, biotinylated pept-ins were captured from the reaction mix using Streptavidin coated beads (Pierce) during 90 min at room temperature. Beads were next washed with TBS containing 0.1% Tween 20 and bound proteins were finally boiled off in 1×SDS loading dye (Bio-Rad) in TBS buffer. Proteins were resolved using Any kD 15-well Mini-PROTEAN gels (Bio-Rad) during SDS-PAGE and probed for KRAS after Western blotting using a mouse monoclonal KRAS-specific antibody (SC-30, Santa Cruz Biotechnology), which was detected with an HRP-coupled anti-mouse secondary antibody using chemiluminescence on a Bio-Rad Chemidoc MP imaging instrument.
To mimic this in vitro, we devised an in vitro translation setup producing either wild-type or mutant KRAS (G12V, G12C, G12D or G13D) in the presence of biotinylated RAS-targeting pept-ins. This allowed us to perform a streptavidin pull-down to capture the biotinylated pept-ins from the translation reaction and perform SDS-PAGE and Western blotting to probe the pulled-down fraction for the presence of KRAS. The biotinylated version of pept-in 04-004-N001, i.e. 04-004-N011, which harbours an APR window sequence derived from a wild-type APR, is predicted to target all RAS proteins independently from their mutation status.

G12C mutant KRAS = biological target: T2, G12C mutant KRAS (Homo sapiens, UniProt P01116, G12C); assay: In vitro translation assay with streptavidin pull-down, KRAS G12C; format: binding; settings: 10 μM biotinylated pept-in, Western blot
T2 construct: made in house; host or cells: cell-free: PURExpress In Vitro Protein Synthesis Kit (New England Biolabs)
Procedure: as §1, with “instrument. […]” for “instrument.”

KRAS G12D mutant = biological target: T3, KRAS G12D mutant (Homo sapiens, UniProt P01116, G12D); assay: In vitro translation assay with streptavidin pull-down, KRAS G12D; format: binding; settings: 10 μM biotinylated pept-in, Western blot
T3 construct: made in house; host or cells: cell-free: PURExpress In Vitro Protein Synthesis Kit (New England Biolabs)
Procedure: as §1, with “instrument. […]” for “instrument.”

KRAS G13D mutant = biological target: T4, KRAS G13D mutant (Homo sapiens, UniProt P01116, G13D); assay: In vitro translation assay with streptavidin pull-down, KRAS G13D; format: binding; settings: 10 μM biotinylated pept-in, Western blot
T4 construct: made in house; host or cells: cell-free: PURExpress In Vitro Protein Synthesis Kit (New England Biolabs)
Procedure: as §1, with “instrument. […]” for “instrument.”

[1] = test system: SW620 human KRAS G12V colorectal cancer xenograft; assay: In vivo SW620 xenograft model; design: species or system mouse; settings: three times per week
Procedure: Female NCr nu/nu mice (8 to 12 weeks) were inoculated with 1×10^6 SW620 tumor cells in 50% Matrigel subcutaneously in the hind flank. The cell Injection Volume was 0.1 mL/mouse. When tumors reached an average size of 100-150 mm^3 a pair match was performed, and treatment started. Group sizes were N=6 for the non-treated group, N=5 for the vehicle groups and N=8 for the pept-in and positive control groups. Tumor growth was monitored by caliper measurement twice per week. Model response was monitored by Irinotecan dosed once per week at 100 mg/kg intraperitoneally for 3 weeks.
To assess whether the RAS-targeting pept-ins are able to attenuate growth of KRAS G12V-driven tumors in vivo, a subcutaneous xenograft model of human KRAS G12V colorectal cancer (SW620) was used. Once the tumors reached 100-150 mm^3 in size, pept-ins were administered directly into the tumor mass by intratumoral injection three times per week during two weeks at two different doses (20 μg and 200 μg).

[2] = test system: NCI-H441 spheroid cultures; assay: Single-dose viability screen on NCI-H441 suspension spheroid cultures (3D, CellTiter Glo 3D); format: cell-based, human; settings: NCI-H441 spheroids, single dose 25 μM, 5 days
Procedure: For the single-dose viability screen on spheroid cultures, 1000 cells were seeded per well in black Ultra-Low Attachment (ULA) round-bottom 96-well plates (Corning) in 75 μL full growth medium. The day after seeding, spheroids were treated by addition of 50 μl of full growth medium containing the indicated test compounds so that the final concentration after adding was 25 μM. Technical duplicates were included for all experimental pept-in conditions 5 days after treatment viability was assessed using the CellTiter Glo 3D reagent (Promega) according to the manufacturer's instructions, with the following adaptation: 80 μL of reagent was added per well. Readout was performed on a Clariostar plate reader (BMG). […]
As previous reports have shown that adherent growth of KRAS mutant cells lines might attenuate their sensitivity to KRAS inhibition or knockdown (Fujita-Sato et al. Cancer Res. 2015, vol. 75, 2851-62; Patricelli et al. Cancer Discov. 2016, vol. 6, 316-29; Vartanian et al. J Biol Chem. 2013, vol. 288, 2403-13), we complemented the screen on adherently growing NCI-H441 cells with a screen on suspension spheroid cultures of the same cell line. […] Viability of the spheroid cultures was determined after 5 days of exposure using the CellTiter Glo 3D reagent from Promega. […]

[3] = biological target: T5, mCherry-tagged KRAS G12V in HeLa cells (Homo sapiens, UniProt P01116, G12V); assay: Cellular fluorescent imaging in HeLa cells overexpressing mCherry-tagged KRAS G12V; format: cell-based; settings: 75 min after treatment
T5 construct: expressed in transfected cells; host or cells: HeLa cells transduced with lentiviral particles
Procedure: Fluorescent cellular imaging was performed using HeLa cells that were transduced with lentiviral particles carrying a construct expressing KRAS G12V labeled N-terminally with mCherry. Cells were seeded in a black Gclear® Cellstar® F-bottom 96-well plates (Greiner) in 100 μL full growth medium. […] Next, cells were fixed, washed and counterstained with the nuclear dye NucBlue™ (containing Hoechst 33342). Images were captured on a Leica confocal microscope.
To complement the co-immunoprecipitation approach, we also used a cellular imaging approach to show target engagement. To this end, we generated a HeLa cell line overexpressing mCherry-tagged KRAS G12V and FITC-labelled versions of the RAS-targeting pept-ins.

[4] = biological target: T6, KRAS of NCI-H441 lung adenocarcinoma cells (KRAS G12V mutant) (human, UniProt P01116 1-186); assay: cell-based or functional assay
[5] = biological target: T6, KRAS of NCI-H441 lung adenocarcinoma …; assay: cell-based or functional assay; remark: listed apart in the source

Molecule | pull-down of KRAS G12V (G12V mutant KRAS) | IC50 on viability of adherently growing NCI-H441 cells (CellTiter Glo, 3 days) [4] | Normalized viability NCI-H441 4 days of exposure to 25 µM (%) [5] | also measured
04-015-N026: biotinylated version of a biologically active pept-in harbouring an APR window containing the G12V mutant site (04-015 series) (KVVVGAVGKGSKVVVGAVGK; also: biotinylated version) | notable pull-down |  |  | pull-down of KRAS G12C (G12C mutant KRAS): notable pull-down
04-006-N007: biotinylated version of a biologically active pept-in harbouring an APR window containing the G12V mutant site (04-006 series) (KVVVGAVKGSKVVVGAVK; also: biotinylated version) | notable pull-down was only observed for the G12V mutant KRAS |  |  | 
04-004-N011: biotinylated version of pept-in 04-004-N001 (KLSVFAIKGSKLSVFAIK; also: biotinylated version of 04-004-N001) | efficient pull-down |  |  | pull-down of KRAS G12C (G12C mutant KRAS): efficient pull-down; binding to KRAS G12D (KRAS G12D mutant): less efficient; binding to KRAS G13D (KRAS G13D mutant): less efficient
04-033-N003: biotinylated version of a biologically active pept-in harbouring an APR window containing the G12V mutant site (04-033 series) (KVVVGAVGVGKGSKVVVGAVGVGK; also: biotinylated version) | notable pull-down was only observed for the G12V mutant KRAS |  |  | 
Ac-KLSVFAIKGSKLSVFAIK-NH2 [04-004-N001] |  |  |  | reduction in average tumor volume at day 22 ([1]; 20 μg intratumoral): only significant for the 200 μg dosing group; reduction in average tumor volume at day 22 ([1]; 200 μg intratumoral): only significant for the 200 μg dosing group
Ac-KLVVVGAVKGSKLVVVGAVK-NH2 [04-014-N001] |  |  |  | activity in the spheroid setting [2]: did not display activity
CC(=O)N[C@@H](CCCCN)C(=O)N[C@H](C(=O)N[C@H](C(=O)N[C@H](C(=O)NCC(=O)N[C@@H](C)C(=O)N[C@H](C(=O)NCC(=O)N[C@@H](CCCCN)C(=O)NCC(=O)N[C@@H](CO)C(=O)N[C@@H](CCCCN)C(=O)N[C@H](C(=O)N[C@H](C(=O)N[C@H](C(=O)NCC(=O)N[C@@H](C)C(=O)N[C@H](C(=O)NCC(=O)N[C@@H](CCCCN)C(N)=O)C(C)C)C(C)C)C(C)C)C(C)C)C(C)C)C(C)C)C(C)C)C(C)C [04-015-N001] |  |  |  | reduction in average tumor volume at day 22 ([1]; 20 μg intratumoral): significant reduction in average tumor volume; reduction in average tumor volume at day 22 ([1]; 200 μg intratumoral): significant reduction in average tumor volume
04-015-N032: RAS-targeting FITC-labelled version of pept-in 04-015-N001 (KVVVGAVGKGSKVVVGAVGK; also: FITC-labelled version of 04-015-N001) |  |  |  | association with mCherry-labelled KRAS [3]: associates with mCherry-labelled KRAS
Ac-KVVVGAVKGSKVVVGAVK-NH2 [04-006-N001] |  | ~10 µM | 8.7% | 
Ac-KLSVFAIKGSKLSVFAIK-NH2 [04-004-N001] |  | ~10 µM | 6.1% | 
Ac-KLVVVGAVKGSKLVVVGAVK-NH2 [04-014-N001] |  | ~10 µM | 9.1% | 
Ac-KVVVGAVGKGSKVVVGAVGK-NH2 [04-015-N001] |  | ~10 µM | 23.3% | 
Ac-KVVVGAVGVGKGSKVVVGAVGVGK-NH2 [04-033-N001] |  | ~10 µM | 5.2% | 

Source: patent publication US20230287046A1, “MOLECULES TARGETING PROTEINS” (AELIN THERAPEUTICS, priority 2020, published 2023)
